# Results from paper PMC7092940 (2005).
# Target: the molecule itself
protein,measurement,value
SARS 3CL proteinase (protein) SGFRKMAFPSGKVEGCMVQVTCGTTTLNGLWLDDTVYCPRHVICTAEDMLNPNYEDLLIRKSNHSFLVQAGNVQLRVIGHSMQNCLLRLKVDTSNPKTPKYKFVRIQPGQTFSVLACYNGSPSGVYQCAMRPNHTIKGSFLNGSCGSVGFNIDYDCVSFCYMHHMELPTGVHAGTDLEGKFYGPFVDRQTAQAAGTDTTITLNVLAWLYAAVINGDRWFLNRFTTTLNDFNLVAMKYNYEPLTQDHVDILGPLSAQTGIAVLDMCAALKELLQNGMNGRTILGSTILEDEFTPFDVVRQCSGVTFQ,Kd,14 µM
